According to patent US12098378B2, “Anti-fungal polypeptides” (priority 2020, dated 2024):
Numbering of substitutions follows the chain as printed. In names and notes the source's numbering stands.

Tests used:
Fraction 3 = experiment: ELISA with biotinylated liposomes on streptavidin-coated plates; type: binding, Botrytis cinerea; conditions: screen for additional Fraction 3 binders (FIG. 13)
Excerpt: Dissociation constants (Kd) can be estimated based on the results of an ELISA. In equilibrium analysis as in ELISA, the Kd can be calculated from the equilibrium binding response. Where the ELISA plate wells are coated with a target antigen, and where the target antigen may be a lipid-containing fraction of the membrane of Botrytis cinerea, such a method may further use a range of concentrations of a polypeptide binding the target antigen. Where the ELISA generally provides a quantitative adsorption measure for each polypeptide concentration representing binding of the polypeptide to the target antigen, the range of concentration of a polypeptide may for example be 0.5, 1, 2.5, 5, and 10 μM. The most suitable range of concentrations used can vary depending on the affinity of the polypeptide to the target antigen. The corresponding absorption values as determined by ELISA may result in a sigmoid curve when absorption values are plotted against the logarithmic conversion of the polypeptide concentrations. This sigmoid curve may serve to define an IC50 value. Where this IC50 is the concentration of polypeptide where the corresponding absorption value is 50% of the saturated value as estimated by the maximum of the sigmoidal function, the Kd can be estimated by 1/Ka were the association constant (Ka) can be estimated as 1/IC50. Thus Kd corresponds to the analyte concentration that reaches equilibrium at 50% binding saturation. Commonly computation methods can be used for these calculations. For example, this can be done using GraphPad. In some embodiments, the Kd may be determined by surface plasmon resonance (SPR).
The above-mentioned method for the formation of liposomes (Example 12) was modified with the addition of a biotinylated lipid (12:0 Biotinyl M G (1-(12-N-biotin)aminododecanoyl-rac-glycerol), Sigma Aldrich), to allow for use of these liposomes for ELISA using streptavidin-coated plates (Pierce™ Streptavidin Coated High Capacity Plates, Clear, 96-Well, blocked with SuperBlock™ Buffer, Thermo Fisher Scientific).
To estimate the dissociation constant Kd value of 10G11 binding to Fraction 3, the ELISA set-up with biotinylated liposomes from Fraction 3 as described in Example 13 was used. 10G11 polypeptide was added in the following concentrations: 0.5, 1, 2.5, 5, and 10 μM, prepared by a serial dilution in phosphate buffer. […] This plot was used to estimate the Kd dissociation constant using GraphPad. Where non-linear regression fitting was used.

[1] = system: Colletotrichum orbiculare; experiment: Control of anthracnose on squash in glasshouse; type: in vivo; conditions: 175, 350, 700 g ai/ha, 4 applications; until 2 weeks after the last application; vs non-treated inoculated control (FIG. 18)
Method: Four replicates of pot-grown squash plants (2 plants/pot) were sprayed with 125 ml aqueous suspension, containing a concentration of active ingredient as described in Table 2. Four applications were done spaced 6 or 7 days apart. Plants were inoculated once with Colletotrichum orbiculare two days after the first application (application A) of active ingredient. The efficacy of 10G11Q was compared to that of a non-treated control and the chemical reference Bravo WS (Chlorothalonil).
Disease severity is recorded as percent severity on a scale of 0-100%. Recording started when first symptoms appeared followed by regular assessment till 2 weeks after the fourth application (application D) of the active ingredient.

Botrytis cinerea R16 [2] = experiment: In vitro antifungal assay, IncuCyte Zoom monitoring of fungal growth from spore suspension; type: cell-based
Method: (§1) Two-fold dilutions of purified VHH 10G11Q were prepared in 96-well microtiter plates. To 20 μl of these dilutions and to 20 μl of water as a control, 80 μl of fungal spore suspension (1 E+05 spores/ml in half strength potato dextrose broth (PDB)) were added, starting with a final VHH 10G11Q concentration of 10 μM. The test plates were incubated for 36 h at 25° C. using the IncuCyte Zoom live cell imaging system. All tests were performed in at least 2 replicates.
as §1, with “VHH 10G11Q and 41D01 were prepared” for “VHH 10G11Q were prepared”, “concentration of 40 μM. The” for “concentration of 10 μM. The”, “incubated for 48 h at” for “incubated for 36 h at”
Microplate graphs were generated using the time plot feature in the graph/export menu of the IncuCyte® Base Analysis Software. Raw data for confluence of treated samples at mid log growth were exported to GraphPad Prism 8 and plotted as a semi logarithmic function of the standard concentrations. IC50 values are extrapolated after fitting the data with a four-parameter logistic regression curve. Pathogen sensitivity is measured based on the IC50, which refers to the concentration (μM) that inhibits 50% of spore germination and/or mycelial growth.

Botrytis cinerea R16 [3] = experiment: Prolonged incubation antifungal assay followed over 14 days; type: cell-based; conditions: followed over a period of 14 days (FIG. 9)
Method: as §1, with “The test plates were incubated for 36 h at 25° C. using the IncuCyte Zoom live cell imaging system.” left out

Botrytis cinerea R16 [4] = conditions: several test strains, including Botrytis cinerea R16; WO2014/177595 A1 and WO2014/191146 A1; cited from earlier work

B1: 12C03Q: VHH polypeptide, SEQ ID NO: 5 (protein)
VHH: QVQLQESGGGLVQAGDSLRLSCAASISDRAFSRHVMGWFRQPPGKEREFVAAIGWTGRRTYYADSVKGRFTISRDNAMNTVYLQMNSLKPEDTAVYYCAASHFYSVSFEINDYDYWGQGTQVTVSS
binding to Fraction 3 by ELISA (Fraction 3): Fraction 3 binding

B2: 10G11Q: VHH polypeptide, SEQ ID NO: 1, begins with a Q residue (protein)
VHH: QVQLVESGGGLVQAGGSLRLSCAASRSIFSINAMDWYRQAPGKQREWVAGITRGGTTKYADSVKGRFTISRDNAKKKVYLQMNSLKPEDTAVYYCNVLRGEQPWTRDYWGQGTQVTVSS
percent severity of anthracnose on squash [1]: clear and dose-related growth inhibition pattern
% fungal growth (total green object area) in function of VHH concentration (Botrytis cinerea R16 [2]; two-fold dilutions from 10 μM, 36 h at 25° C. (FIG. 1)): clear dose-dependent growth inhibition pattern
growth inhibition compared to VHH 41D01 (Botrytis cinerea R16 [2]; two-fold dilutions from 40 μM, 48 h at 25° C. (FIG. 2)): more prominent growth inhibition pattern

B3: Mutant 7: 10G11 charge variant: W100aH and T100bH substitutions in CDR3 (SEQ ID NO: 13) (protein)
VHH: B2 VHH with Q1D, W104H, T105H
antifungal activity of charge variants relative to 10G11 (Botrytis cinerea R16 [2]; assay as in Example 5 (FIG. 6)): on par antifungal activity with 10G11

B4: Mutant 10: 10G11 charge variant: W100aK and T100bK substitutions in CDR3 (SEQ ID NO: 16) (protein)
VHH: B2 VHH with Q1D, W104K, T105K
antifungal activity of charge variants relative to 10G11 (Botrytis cinerea R16 [2]; assay as in Example 5 (FIG. 6)): significant increase in antifungal activity

B5: Mutant 11: 10G11 charge variant: S27K, I28K, S30K in CDR1 and W100aK, T100bK in CDR3 (SEQ ID NO: 17) (protein)
VHH: B2 VHH with Q1D, S27K, I28K, S30K, W104K, T105K
antifungal activity of charge variants relative to 10G11 (Botrytis cinerea R16 [2]; assay as in Example 5 (FIG. 6)): significant increase in antifungal activity
increase in anti-fungal activity over 10G11 (Botrytis cinerea R16 [2]; assay as in Example 5 (FIG. 6)): up to 5 fold
effect on preventing spore outgrowth (Botrytis cinerea R16 [3]): sustained effect on preventing spore outgrowth

B6: Mutant 6: 10G11 charge variant: S27H, I28H and S30H substitutions in CDR1 (SEQ ID NO: 12) (protein)
VHH: B2 VHH with Q1D, S27H, I28H, S30H
antifungal activity of charge variants relative to 10G11 (Botrytis cinerea R16 [2]; assay as in Example 5 (FIG. 6)): on par antifungal activity with 10G11

B7: Mutant 9: 10G11 charge variant: S27K, I28K and S30K substitutions in CDR1 (SEQ ID NO: 15) (protein)
VHH: B2 VHH with Q1D, S27K, I28K, S30K
antifungal activity of charge variants relative to 10G11 (Botrytis cinerea R16 [2]; assay as in Example 5 (FIG. 6)): significant increase in antifungal activity
effect on preventing spore outgrowth (Botrytis cinerea R16 [3]): sustained effect on preventing spore outgrowth

B8: Mutant 8: 10G11 charge variant: S27H, I28H, S30H in CDR1 and W100aH, T100bH in CDR3 (SEQ ID NO: 14) (protein)
VHH: B2 VHH with Q1D, S27H, I28H, S30H, W104H, T105H
antifungal activity of charge variants relative to 10G11 (Botrytis cinerea R16 [2]; assay as in Example 5 (FIG. 6)): significant increase in antifungal activity

B9: 10G11Q-His: 10G11Q polypeptide with a C-terminal addition of a 6× His-Tag (SEQ ID NO: 148) (protein)
VHH: QVQLQESGGGLVQAGGSLRLSCAASRSIFSINAMDWYRQAPGKQREWVAGITRGGTTKYADSVKGRFTISRDNAKKKVYLQMNSLKPEDTAVYYCNVLRGEQPWTRDYWGQGTQVTVSSAAAHHHHHH
modifications: C-terminal 6xHis tag
antifungal activity of his-tagged variant relative to 10G11Q (Botrytis cinerea R16 [2]; assay as in Example 5 (FIG. 4)): significantly improved anti-fungal activity

B10: 41D01: anti-glucosylceramide binding VHH described in WO2014/177595 A1 and WO2014/191146 A1 (protein)
VHH: QVQLQESGGGLVQAGGSLRLSCAASGRTFSRYGMGWFRQLPGKQRELVTSITRGGTTTYADSVKGRFTISRDNAKNTVYLQMNSLKPEDTAVYYCNARSIWRDYWGQGTQVTVSS
modifications: left off: small tags and cut ends
antifungal activity among anti-glucosylceramide binding VHHs (Botrytis cinerea R16 [4]): most prominent antifungal activity

B11: 10E11Q: VHH polypeptide, SEQ ID NO: 3 (protein)
VHH: QVQLQESGGGLVQAGGSLRLSCAASGTIFRPTAMGWYRQAPGKERELVATITTGGSTKYADSVKGRFTISRGNAKNTVYLQMSSLKPEDTAVYYCNAQWGVRTRDYWGQGTQVTVSS
binding to Fraction 3 by ELISA (Fraction 3): Fraction 3 binding
